Laboratory results taken from paper PMC11286877.

Molecular target: OLFM4 recombinant protein (SPR) (UniProt Q3UZZ4)
Test: SPR

UniProt Q3UZZ4, sequence (Q3UZZ4 19-505): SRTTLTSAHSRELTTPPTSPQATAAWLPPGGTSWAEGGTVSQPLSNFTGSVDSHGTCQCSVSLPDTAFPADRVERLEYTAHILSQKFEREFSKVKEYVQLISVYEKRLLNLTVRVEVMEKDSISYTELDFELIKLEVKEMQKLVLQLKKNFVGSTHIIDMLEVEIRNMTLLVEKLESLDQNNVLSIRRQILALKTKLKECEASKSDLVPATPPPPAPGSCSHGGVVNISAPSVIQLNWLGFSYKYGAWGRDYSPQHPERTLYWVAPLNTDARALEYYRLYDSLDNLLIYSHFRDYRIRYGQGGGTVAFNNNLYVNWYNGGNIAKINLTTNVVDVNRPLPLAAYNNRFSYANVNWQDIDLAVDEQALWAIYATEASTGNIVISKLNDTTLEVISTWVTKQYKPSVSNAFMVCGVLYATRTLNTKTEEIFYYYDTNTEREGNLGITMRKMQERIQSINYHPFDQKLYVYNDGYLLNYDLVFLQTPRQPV

**Q.** For “MTDH protein, extracellular domain (SPR) (from UniProt Q80WJ7 1-48) (domain or fragment)”, which Kd is on record?
**A.** 0.0219 nM
